Publication PMC2818353

Target: YAP (WW1+WW2) protein fragment, recombinant 104-amino acid polypeptide
Test: ITC

fold increase of the interaction over the Smad1 peptide with only the PY motif: 2.5 fold
Substance: Smad1 peptide extended to include S206 and S214 (unphosphorylated) and the PY motif
